{"source": "paper PMC9483790", "target": "endogenous pyruvate kinase M2 (PKM2) (human (endogenous in PLC/PRF/5, SMMC-7721, HCCLM3, Huh7)) (UniProt P14618)", "assay": "cross-linking"}
{"substance": "endogenous pyruvate kinase M2 (PKM2), P14618 1-531 (enzyme; other documents disagree on this pair)", "values": [{"measurement": "stoichiometry N", "value": 2}]}
